For test [1], the target named is microtubule network of cultured human cells (hTERT-RPE1, 293T) (human) (UniProt P68363). In words: cell-based or functional assay.
The target in test [2] is pure, pre-polymerized, taxol-stabilized microtubules of bovine tubulin (Cytoskeleton) (bovine) (UniProt P81947). Briefly: in vitro microtubule co-sedimentation, percent of construct in the microtubule pellet (FIG. 4D).
The target of test [3] is microtubules polymerized in mouse brain homogenate (mouse) (UniProt P05213). Briefly: microtubule co-sedimentation from mouse brain homogenate, western blot (FIG. 6F). On the technique in general: In western blotting, separated proteins are transferred to a membrane and probed.
Sequence of microtubules polymerized in mouse brain homogenate (mouse) (P05213 whole entry, chain 1 of 2): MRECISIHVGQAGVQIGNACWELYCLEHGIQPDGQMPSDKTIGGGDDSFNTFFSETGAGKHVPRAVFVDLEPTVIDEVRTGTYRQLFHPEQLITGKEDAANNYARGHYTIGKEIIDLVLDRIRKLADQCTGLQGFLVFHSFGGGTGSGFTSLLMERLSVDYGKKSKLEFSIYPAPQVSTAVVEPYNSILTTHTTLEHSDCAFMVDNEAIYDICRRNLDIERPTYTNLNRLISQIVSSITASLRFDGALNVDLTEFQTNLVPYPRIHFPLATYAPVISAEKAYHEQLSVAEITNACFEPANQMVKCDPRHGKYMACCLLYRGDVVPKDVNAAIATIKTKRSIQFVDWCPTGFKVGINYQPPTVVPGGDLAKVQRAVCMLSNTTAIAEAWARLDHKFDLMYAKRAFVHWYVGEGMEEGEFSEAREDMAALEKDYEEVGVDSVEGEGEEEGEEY
Sequence of microtubules polymerized in mouse brain homogenate (mouse) (Q9CWF2 whole entry, chain 2 of 2, further chain): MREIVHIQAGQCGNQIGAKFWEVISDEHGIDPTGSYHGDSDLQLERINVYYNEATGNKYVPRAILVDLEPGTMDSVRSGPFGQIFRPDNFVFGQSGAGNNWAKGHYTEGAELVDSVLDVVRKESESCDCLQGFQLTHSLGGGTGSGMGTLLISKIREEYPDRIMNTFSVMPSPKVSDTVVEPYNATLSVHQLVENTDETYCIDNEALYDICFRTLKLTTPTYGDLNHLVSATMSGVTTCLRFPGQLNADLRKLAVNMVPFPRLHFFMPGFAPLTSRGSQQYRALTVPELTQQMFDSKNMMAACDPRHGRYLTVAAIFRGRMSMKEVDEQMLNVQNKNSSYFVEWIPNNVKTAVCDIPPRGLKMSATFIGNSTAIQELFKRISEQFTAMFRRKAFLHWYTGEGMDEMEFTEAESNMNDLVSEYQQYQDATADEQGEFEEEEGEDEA

Sequence of microtubule network of cultured human cells (hTERT-RPE1, 293T) (human) (P68363 whole entry, chain 1 of 2): as the sequence (P05213 whole entry, chain 1 of 2) above
Sequence of microtubule network of cultured human cells (hTERT-RPE1, 293T) (human) (P07437 whole entry, chain 2 of 2, further chain): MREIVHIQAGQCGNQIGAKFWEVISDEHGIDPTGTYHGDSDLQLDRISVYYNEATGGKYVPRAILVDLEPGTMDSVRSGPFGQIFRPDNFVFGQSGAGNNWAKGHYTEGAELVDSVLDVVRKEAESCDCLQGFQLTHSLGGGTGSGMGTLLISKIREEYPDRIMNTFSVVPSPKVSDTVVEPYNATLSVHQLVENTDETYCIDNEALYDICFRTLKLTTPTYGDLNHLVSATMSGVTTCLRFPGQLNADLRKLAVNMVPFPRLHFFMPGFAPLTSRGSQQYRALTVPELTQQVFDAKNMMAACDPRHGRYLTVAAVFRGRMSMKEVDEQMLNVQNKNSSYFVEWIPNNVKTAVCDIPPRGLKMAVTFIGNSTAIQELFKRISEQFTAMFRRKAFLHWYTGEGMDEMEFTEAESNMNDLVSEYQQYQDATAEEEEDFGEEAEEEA
Sequence of pure, pre-polymerized, taxol-stabilized microtubules of bovine tubulin (Cytoskeleton) (bovine) (P81947 whole entry, chain 1 of 2): as the sequence (P05213 whole entry, chain 1 of 2) above
Sequence of pure, pre-polymerized, taxol-stabilized microtubules of bovine tubulin (Cytoskeleton) (bovine) (Q6B856 whole entry, chain 2 of 2, further chain): as the sequence (Q9CWF2 whole entry, chain 2 of 2, further chain) above

For the substance “GFP fusion of full length human CEP290 (aa 1-2479), O15078 1-2479”, in test [1], the percent of transfected cells with increased microtubule acetylation and bundling was 40%; the percent of transfected hTERT-RPE1 cells with a fibrillar localization pattern was determined as 10%. Further, the percent associated with microtubules in test [2] is less than 50%.
The substance “full length wild type (WT) mouse Cep290 from mouse brain homogenate, Q6A078 1-2472” showed a percent associated with microtubules in test [3] of 60%.

These data come from US20160185832A1.
